Test results from publication PMC6451107, “Structural insights reveal the specific recognition of roX RNA by the dsRNA-binding domains of the RNA helicase MLE and its indispensable role in dosage compensation in Drosophila”.

Columns and labels:
Assay in all cases: fluorescence polarization; FP: 80 nM 3'-FAM RNA stock mixed 1:1 with protein, buffer D (composition not in material), 15 min, 20 C; EMSA: 1200 nM RNA stock mixed 1:1 with protein, buffer
[1] = target: MLE dsRBD1+2 N223A/K224A/K225A (Drosophila, UniProt P24785 1-264, N223A;K224A;K225A); settings: protein: recombinant; tags: SUMO tag removed by ULP1; label: 3'-FAM; hairpin, 13 nt loop (C135-C147)
MLE dsRBD1+2 H196A = MLE dsRBD1+2 H196A (Drosophila, UniProt P24785 1-264, H196A); settings: protein: recombinant; tags: SUMO tag removed by ULP1; label: 3'-FAM; hairpin, 13 nt loop (C135-C147)
MLE dsRBD1+2 K171A = MLE dsRBD1+2 K171A (Drosophila, UniProt P24785 1-264, K171A); settings: protein: recombinant; tags: SUMO tag removed by ULP1; label: 3'-FAM; hairpin, 13 nt loop (C135-C147)
MLE dsRBD1+2 K4E/S5A = MLE dsRBD1+2 K4E/S5A (Drosophila, UniProt P24785 1-264, K4E;S5A); settings: protein: recombinant; tags: SUMO tag removed by ULP1; label: 3'-FAM; hairpin, 13 nt loop (C135-C147)
MLE dsRBD1+2 S5A = MLE dsRBD1+2 S5A (Drosophila, UniProt P24785 1-264, S5A); settings: protein: recombinant; tags: SUMO tag removed by ULP1; label: 3'-FAM; hairpin, 13 nt loop (C135-C147)
MLE dsRBD1+2 K229A = MLE dsRBD1+2 K229A (Drosophila, UniProt P24785 1-264, K229A); settings: protein: recombinant; tags: SUMO tag removed by ULP1; label: 3'-FAM; hairpin, 13 nt loop (C135-C147)
[2] = target: MLE dsRBD1+2 N52A/K53E/K54E/K58E (Drosophila, UniProt P24785 1-264, N52A;K53E;K54E;K58E); settings: protein: recombinant; tags: SUMO tag removed by ULP1; label: 3'-FAM; hairpin, 13 nt loop (C135-C147)
MLE dsRBD1+2 K171E = MLE dsRBD1+2 K171E (Drosophila, UniProt P24785 1-264, K171E); settings: protein: recombinant; tags: SUMO tag removed by ULP1; label: 3'-FAM; hairpin, 13 nt loop (C135-C147)
[3] = target: MLE dsRBD1+2 N223A/K224E/K225E/K229E (Drosophila, UniProt P24785 1-264, N223A;K224E;K225E;K229E); settings: protein: recombinant; tags: SUMO tag removed by ULP1; label: 3'-FAM; hairpin, 13 nt loop (C135-C147)
MLE dsRBD1+2 K4A = MLE dsRBD1+2 K4A (Drosophila, UniProt P24785 1-264, K4A); settings: protein: recombinant; tags: SUMO tag removed by ULP1; label: 3'-FAM; hairpin, 13 nt loop (C135-C147)
[4] = target: MLE dsRBD1+2 N52A/K53A/K54A (Drosophila, UniProt P24785 1-264, N52A;K53A;K54A); settings: protein: recombinant; tags: SUMO tag removed by ULP1; label: 3'-FAM; hairpin, 13 nt loop (C135-C147)
MLE dsRBD1+2 K4E = MLE dsRBD1+2 K4E (Drosophila, UniProt P24785 1-264, K4E); settings: protein: recombinant; tags: SUMO tag removed by ULP1; label: 3'-FAM; hairpin, 13 nt loop (C135-C147)
MLE dsRBD1+2 K4A/S5A = MLE dsRBD1+2 K4A/S5A (Drosophila, UniProt P24785 1-264, K4A;S5A); settings: protein: recombinant; tags: SUMO tag removed by ULP1; label: 3'-FAM; hairpin, 13 nt loop (C135-C147)
MLE dsRBD1+2 H196E = MLE dsRBD1+2 H196E (Drosophila, UniProt P24785 1-264, H196E); settings: protein: recombinant; tags: SUMO tag removed by ULP1; label: 3'-FAM; hairpin, 13 nt loop (C135-C147)
MLE dsRBD1+2 K171E/N175A = MLE dsRBD1+2 K171E/N175A (Drosophila, UniProt P24785 1-264, K171E;N175A); settings: protein: recombinant; tags: SUMO tag removed by ULP1; label: 3'-FAM; hairpin, 13 nt loop (C135-C147)
MLE dsRBD1+2 N175A = MLE dsRBD1+2 N175A (Drosophila, UniProt P24785 1-264, N175A); settings: protein: recombinant; tags: SUMO tag removed by ULP1; label: 3'-FAM; hairpin, 13 nt loop (C135-C147)
MLE dsRBD1+2 WT = MLE dsRBD1+2 WT (Drosophila, UniProt P24785 1-264); settings: protein: recombinant, tags: SUMO tag (N-terminal, with Ni-NTA purification) removed by ULP1, label: 3'-FAM, hairpin
MLE dsRBD1+2 E195A = MLE dsRBD1+2 E195A (Drosophila, UniProt P24785 1-264, E195A); settings: protein: recombinant; tags: SUMO tag removed by ULP1; label: 3'-FAM; hairpin, 13 nt loop (C135-C147)
MLE dsRBD1+2 K58A = MLE dsRBD1+2 K58A (Drosophila, UniProt P24785 1-264, K58A); settings: protein: recombinant; tags: SUMO tag removed by ULP1; label: 3'-FAM; hairpin, 13 nt loop (C135-C147)
MLE dsRBD1+2 E172A = MLE dsRBD1+2 E172A (Drosophila, UniProt P24785 1-264, E172A); settings: protein: recombinant; tags: SUMO tag removed by ULP1; label: 3'-FAM; hairpin, 13 nt loop (C135-C147)
MLE dsRBD1+2 N29A = MLE dsRBD1+2 N29A (Drosophila, UniProt P24785 1-264, N29A); settings: protein: recombinant; tags: SUMO tag removed by ULP1; label: 3'-FAM; hairpin, 13 nt loop (C135-C147)
MLE dsRBD2 = MLE dsRBD2 (Drosophila, UniProt P24785 152-264); settings: protein: recombinant; tags: SUMO tag removed by ULP1; label: 3'-FAM; hairpin, 13 nt loop (C135-C147)
MLE dsRBD1 = MLE dsRBD1 (Drosophila, UniProt P24785 1-87); settings: protein: recombinant; tags: SUMO tag removed by ULP1; label: 3'-FAM; hairpin, 13 nt loop (C135-C147)

B1: R2H1 55mer (FAM) (structured_RNA)
RNA: GCUUUAGAGAUCGUUUCGAAUCACAUUGAUAAUCGUUCGAAACGUUCUCCGAAGC
[1]
  Kd: 18.9 ± 1.45 µM
MLE dsRBD1+2 H196A
  Kd: 3.02 ± 0.2 µM
MLE dsRBD1+2 K171A
  Kd: 4.58 ± 0.68 µM
MLE dsRBD1+2 K4E/S5A
  Kd: 8.05 ± 0.34 µM
MLE dsRBD1+2 S5A
  Kd: 1.8 ± 0.24 µM
MLE dsRBD1+2 K229A
  Kd: 0.88 ± 0.18 µM
[2]
  Kd: 12.5 ± 1.51 µM
MLE dsRBD1+2 K171E
  Kd: 8.21 ± 0.26 µM
[3]
  Kd: 60.1 ± 6.55 µM
MLE dsRBD1+2 K4A
  Kd: 4.18 ± 0.27 µM
[4]
  Kd: 7.7 ± 0.36 µM
MLE dsRBD1+2 K4E
  Kd: 6.55 ± 0.56 µM
MLE dsRBD1+2 K4A/S5A
  Kd: 4.49 ± 0.54 µM
MLE dsRBD1+2 H196E
  Kd: 7.24 ± 0.65 µM
MLE dsRBD1+2 K171E/N175A
  Kd: 10.3 ± 1.14 µM
MLE dsRBD1+2 N175A
  Kd: 1.31 ± 0.26 µM
MLE dsRBD1+2 WT; 13 nt loop (C135-C147)
  Kd: 0.2 ± 0.03 µM
MLE dsRBD1+2 E195A
  Kd: 0.15 ± 0.03 µM
MLE dsRBD1+2 K58A
  Kd: 2.38 ± 0.13 µM
MLE dsRBD1+2 E172A
  Kd: 0.18 ± 0.04 µM
MLE dsRBD1+2 N29A
  Kd: 0.43 ± 0.07 µM
MLE dsRBD2
  binding signal: ~4.5 fold weaker than dsRBD1+2
MLE dsRBD1
  binding signal: ~44 fold weaker than dsRBD1+2

B2: R2H1 U118C/A119G (structured_RNA)
RNA: GCUUCGGAGAUCGUUUCGAAUCACAUUGAUAAUCGUUCGAAACGUUCUCCGAAGC
MLE dsRBD1+2 WT
  Kd: 0.42 ± 0.06 µM

B3: R2H1 U124A (structured_RNA)
RNA: GCUUUAGAGAACGUUUCGAAUCACAUUGAUAAUCGUUCGAAACGUUCUCCGAAGC
MLE dsRBD1+2 WT
  Kd: 1.03 ± 0.12 µM

B4: R2H1 U134C/C135G (structured_RNA)
RNA: GCUUUAGAGAUCGUUUCGAACGACAUUGAUAAUCGUUCGAAACGUUCUCCGAAGC
MLE dsRBD1+2 WT
  Kd: 0.43 ± 0.05 µM
